Assay: Inhibition of the Fe2+ induced radical degradation of hyaluronic acid (viscosity drop)
Method: The chelating microspheres prepared according to I2 are used to evaluate their capacity, via the trapping of ferrous iron Fe2+, to inhibit the radical degradation of hyaluronic acid, glycosarinoglycan implied in the moisturisation of the human dermis, which is therefore a particularly important target to protect in cosmetic and dermo-pharmaceutical applications.
A 10 g/l solution of hyaluronic acid of high molecular weight (>1,000,000g/mol or Daltons) is prepared in demineralised water. To this solution is added an amount of Fe2+ of 620 ppm.
Other chelating agents which are conventionally used in cosmetics were used and compared to the chelating microspheres, for their capacity to reduce the radical degradation of hyaluronic acid. Indices of protection, expressed in % of protection, are calculated by carrying out a ratio of the drop in viscosity observed by the presence of iron Fe2+ (620 ppm) in the presence of the chelating agent studied, and the drop in viscosity observed with and without iron Fe2+.

B1: Lactoferrin (protein, UniProt P02788 20-710, looked up)
Lactotransferrin: GRRRSVQWCAVSQPEATKCFQWQRNMRKVRGPPVSCIKRDSPIQCIQAIAENRADAVTLDGGFIYEAGLAPYKLRPVAAEVYGTERQPRTHYYAVAVVKKGGSFQLNELQGLKSCHTGLRRTAGWNVPIGTLRPFLNWTGPPEPIEAAVARFFSASCVPGADKGQFPNLCRLCAGTGENKCAFSSQEPYFSYSGAFKCLRDGAGDVAFIRESTVFEDLSDEAERDEYELLCPDNTRKPVDKFKDCHLARVPSHAVVARSVNGKEDAIWNLLRQAQEKFGKDKSPKFQLFGSPSGQKDLLFKDSAIGFSRVPPRIDSGLYLGSGYFTAIQNLRKSEEEVAARRARVVWCAVGEQELRKCNQWSGLSEGSVTCSSASTTEDCIALVLKGEADAMSLDGGYVYTAGKCGLVPVLAENYKSQQSSDPDPNCVDRPVEGYLAVAVVRRSDTSLTWNSVKGKKSCHTAVDRTAGWNIPMGLLFNQTGSCKFDEYFSQSCAPGSDPRSNLCALCIGDEQGENKCVPNSNERYYGYTGAFRCLAENAGDVAFVKDVTVLQNTDGNNNEAWAKDLKLADFALLCLDGKRKPVTEARSCHLAMAPNHAVVSRMDKVERLKQVLLHQQAKFGRNGSDCPDKFCLFQSETKNLLFNDNTECLARLHGKTTYEKYLGPQYVAGITNLKKCSTSPLLEACEFLRK
notes: chelating agent conventionally used in cosmetics for trapping iron
Concentration used 133 mg/l, hyaluronic acid 10 g/l, Fe2+ 620 ppm
  Index of protection (%): 25%
In words
  effect on the depolymerisation (radical cleavage) of hyaluronic acid in the presence of iron: accelerated
